Experimental data from article PMC4107794 (The Journal of Cell Biology, 2014).

Key:
[1] = target: FLAG-Rad18 (UniProt Q9NS91 1-495); experiment: pull-down
[2] = target: GST-Rad18 (UniProt Q9NS91 1-495); experiment: pull-down
GST-Rad18, sequence (Q9NS91 whole entry): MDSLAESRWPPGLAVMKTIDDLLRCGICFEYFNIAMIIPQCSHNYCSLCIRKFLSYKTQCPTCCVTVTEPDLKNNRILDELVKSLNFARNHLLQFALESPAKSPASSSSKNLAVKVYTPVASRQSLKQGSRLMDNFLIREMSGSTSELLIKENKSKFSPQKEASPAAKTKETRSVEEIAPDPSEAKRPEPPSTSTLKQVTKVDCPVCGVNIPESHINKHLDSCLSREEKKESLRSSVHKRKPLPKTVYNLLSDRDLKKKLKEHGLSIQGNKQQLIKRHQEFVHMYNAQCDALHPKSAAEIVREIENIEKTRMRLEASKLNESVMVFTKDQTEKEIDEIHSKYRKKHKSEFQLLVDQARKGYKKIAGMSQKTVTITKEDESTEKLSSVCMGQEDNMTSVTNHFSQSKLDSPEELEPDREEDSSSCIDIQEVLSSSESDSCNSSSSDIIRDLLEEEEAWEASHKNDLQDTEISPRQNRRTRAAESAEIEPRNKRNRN

FLAG-Rad18, sequence (Q9NS91 whole entry): as above

B1: FLAG-SHPRH (natural protein)
chain: MSSRRKRAPPVRVDEEKRQQLHWNMHEDRRNEPIIISDDDEQPCPGSDTSSAHYIILSDSLKEEVAHRDKKRCSKVVSFSKPIEKEETVGIFSPLSVKLNIVISPYHFDNSWKAFLGELTLQLLPAQSLIENFSERSITLMSSESSNQFLIYVHSKGEDVEKQKKEPMSICDKGILVESSFSGEMLEDLGWLQKKRRIKLYQKPEGNHIIKVGIYLLEAGLAKLDFLSDANSRMKKFNQLMKKVMEKLHNSIIPDVLEEDEDDPESEPEGQDIDELYHFVKQTHQQETQSIQVDVQHPALIPVLRPYQREAVNWMLQQECFRSSPATESALHFLWREIVTSEGLKLYYNPYTGCIIREYPNSGPQLLGGILADEMGLGKTVEVLALILTHTRQDVKQDALTLPEGKVVNYFIPSHYFGGKLKKTEIQNIEFEPKEKVQCPPTRVMILTAVKEMNGKKGVSILSIYKYVSSIYRYDVQRNRSLLKRMLKCLIFEGLVKQIKGHGFSGTFTLGKNYKEEDICDKTKKQAVGSPRKIQKETRKSGNKDTDSEYLPSDTSDDDDDPYYYYYKSRRNRSKLRKKLVPSTKKGKSQPFINPDSQGHCPATSDSGITDVAMSKSTCISEFNQEHETEDCAESLNHADSDVPPSNTMSPFNTSDYRFECICGELDQIDRKPRVQCLKCHLWQHAKCVNYDEKNLKIKPFYCPHCLVAMEPVSTRATLIISPSSICHQWVDEINRHVRSSSLRVLVYQGVKKDGFLQPHFLAEQDIVIITYDVLRSELNYVDIPHSNSEDGRRLRNQKRYMAIPSPLVAVEWWRICLDEAQMVECPTVKAAEMAQRLSGINRWCISGTPVQRGLEDLFGLVVFLGIEPYCVKHWWVRLLYRPYCKKNPQHLYSFIAKILWRSAKKDVIDQIQIPPQTEEIHWLHFSPVERHFYHRQHEVCCQDVVVKLRKISDWALKLSSLDRRTVTSILYPLLRLRQACCHPQAVRGEFLPLQKSTMTMEELLTSLQKKCGTECEEAHRQLVCALNGLAGIHIIKGEYALAAELYREVLRSSEEHKGKLKTDSLQRLHATHNLMELLIARHPGIPPTLRDGRLEEEAKQLREHYMSKCNTEVAEAQQALYPVQQTIHELQRKIHSNSPWWLNVIHRAIEFTIDEELVQRVRNEITSNYKQQTGKLSMSEKFRDCRGLQFLLTTQMEELNKCQKLVREAVKNLEGPPSRNVIESATVCHLRPARLPLNCCVFCKADELFTEYESKLFSNTVKGQTAIFEEMIEDEEGLVDDRAPTTTRGLWAISETERSMKAILSFAKSHRFDVEFVDEGSTSMDLFEAWKKEYKLLHEYWMALRNRVSAVDELAMATERLRVRDPREPKPNPPVLHIIEPHEVEQNRIKLLNDKAVATSQLQKKLGQLLYLTNLEKSQDKTSGGVNPEPCPICARQLGKQWAVLTCGHCFCNECISIIIEQYSVGSHRSSIKCAICRQTTSHKEISYVFTSEKANQEEDIPVKGSHSTKVEAVVRTLMKIQLRDPGAKALVFSTWQDVLDIISKALTDNNMEFAQISRVKTFQENLSAFKRDPQINILLLPLHTGSNGLTIIEATHVLLVEPILNPAHELQAIGRVHRIGQTKPTIVHRFLIKATIEERMQAMLKTAERSHTNSSAKHSEASVLTVADLADLFTKETEELE
[1]
  binding result: binds
[2]
  binding result: binds
